The nature of data set [1]: Quantum yield measurements. The data set is classed as biochemical. The settings on record: for Quantum Yield (%) bc: benzyl-coelenterazine; for Quantum Yield (%) bdc: bisdeoxycoelenterazine; for Quantum Yield (%) cp: coelenterazine-cp; for Quantum Yield (%) n: coelenterazine-n; for Quantum Yield (%) native: native coelenterazine. As for the experimental part:
For quantum yield measurements, separate 1 μl drops of protein (about 2 pm) and substrate (0.2 pm) were placed in a tube, 100 μl of 100 mM sodium phosphate buffer (pH 7) was injected by the luminometer to mix, and the total light output was integrated (generally 5-10 min). For coelenterazine-n, the protein amount was increased 10 fold and the acquisition time lengthened to insure the reaction approached completion.

Data set [2] relates to 293T cells implanted in nude mice. As to the kind of experiment: In vivo animal imaging of BRET^2 expression with cooled CCD camera. Further details: species or system mouse. The settings on record: 3×10^6 transfected 293T cells s.c. in nude mice, DBC i.v. On the procedure:
In Vivo Animal Imaging of BRET^2 Expression by Using a Cooled CCD Camera: 293T cells transiently transfected with either phRluc or pBRET^2 were harvested 24 hours post-transfection and resuspended in PBS. An aliquot of 3×10^6 cells each was injected s.c. in a set of 3 anesthetized (ketamine:xylazine 4:1) nude mice. One hour after cell injection, 20 μg/mouse of DBC diluted in D-PBS (100 μl total volume) was injected via tail vein (i.v.) and imaged immediately using the CCD camera. For the deep tissue signal detection experiment, 3×10^6 cells each were injected intravenously in another set of anesthetized nude mice, and a scan was performed half an hour later after 100 μg/mouse of DBC injection. For protein-protein interaction experiments, 293T cells were transiently transfected with either pBRET^2, pFKBP12-hRluc alone or co-transfected with pFKBP12-hRluc and pGFP^2-FRB in 1:1 DNA ratio. The cells were harvested 24 hours post-transfection and re-suspended in PBS after counting the cell number. An aliquot of 5×10^6 cells each was injected s.c. in a set of 6 nude mice. Three of these mice were kept aside, while the other 3 mice received single dose of 5 mg/kg rapamycin intra-peritonially (i.p.). After 7 hours, mice were injected intravenously with 25 μg of DBC/mouse and imaged using specified filters. […]
Background: BRET reads energy transfer from a luciferase to a nearby fluorophore.

For data set [3] the following is noted: cited from earlier work.
Data set [4] is described as follows: Serum stability in rat serum at 37° C. The class given is in vitro ADME. The settings on record: mono-exponential fit. In a few lines:
(§1)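 Luciferase diluted into mouse or rat serum at 37° C; aliquots withdrawn over time for activity, half-life from mono-exponential decay fit. Emission spectra recorded at ambient temperature with a grating spectrometer and cooled CCD detector.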

Data set [5] is described as follows: Serum stability in mouse serum at 37° C. The data set is classed as in vitro ADME. As to conditions: mouse serum, 37° C., mono-exponential fit. A digest of the protocol: as §1
The subject of a further data set is 293T cells. As to the kind of experiment: Mammalian expression, transient transfection, light output in 293T cells. The data set is classed as cell-based, human. As to conditions: pcDNA 3.1 CMV plasmid, 24 hours post transfection, coelenterazine. The source says: (§2) Mammalian Expression: In order to construct mammalian expression vectors, bacterial expression vectors containing the desired mutations were used as templates for PCR, with primers designed such that the N-terminal pelB sequence would be replaced by a methionine codon and a C-terminal stop codon would replace the Myc epitope and 6×His tag. The primers also contained appropriate NheI and HindIII restriction sites to allow insertion of the product into the pcDNA 3.1 plasmid (Invitrogen). The resultant plasmids were transiently transfected using SuperFect (Qiagen) into 293T or Chinese Hamster Ovarian (CHO, ATCC# CCL-61) cells growing in 24 well plates following the manufacturer's protocol. Twenty-four hours post transfection, 0.5 μg/well of coelenterazine was added, and the plates were imaged in an IVIS 50 imaging system (Xenogen, Alameda, Calif.).

The conditions of data set [6]: recombinant RLuc, hamster blood at 37° C.; cited from earlier work.
The nature of data set [7]: Bioluminescence emission spectra. As to conditions: emission spectrum with native coelenterazine. The class given is physicochemical. In a few lines:
as §1

The test system of another data set is CHO cells. In words: Mammalian expression, transient transfection, light output in CHO cells. The class given is cell-based, Chinese Hamster. The settings on record: pcDNA 3.1 CMV plasmid, 24 hours post transfection, coelenterazine.
From the text: as §2

A short description of data set [8]: Kinetics (Michaelis-Menten fit to initial reaction velocity). The class given is biochemical. The settings on record: for Km / kcat: coelenterazine 0.038 to 24 μM, formal standard error of fit. On the procedure: Kinetics: Kinetics were assessed by injecting 100 μl of 100 mM sodium phosphate buffer (pH 7) containing coelenterazine onto 1 μl of protein (diluted appropriately in EB containing 1% HSA), and recording the light output for 20 min. The final coelenterazine concentrations tested were 118, 24, 4.7, 0.94, 0.19, and 0.038 μM. The final Luciferase concentrations were in the range of 1-7 pM. Coelenterazine absorbance was corrected for, although this was only significant for the highest concentration (10% attenuation). The values were converted from photons/s to molecules/s using the data from the quantum yield measurements, converted from flux units to mass units via integration, and processed using the kinetic curve fitting program Dynafit.

A short description of data set [9]: Luciferase activity of purified RLuc mutants (light output integrated over 10 s, luminometer). The data set is classed as biochemical. In a few lines:
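Purified RLuc mutant sample, diluted in EB with 1% HSA, added to room-temperature 100 mM sodium phosphate (pH 7), then 1 μl of 0.5 μg/μl coelenterazine or analog mixed in manually. Light read for 10 s starting ~4 s after luciferin addition. Luminometer calibrated to photons/s against luminol standard in DMSO.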

The conditions of data set [10]: RLuc purified directly from Renilla reniformis; cited from earlier work.
The test system of data set [11] is HT1080 fibro-sarcoma cells. As to the kind of experiment: BRET vectors with RLuc mutants fused to GFP^2, CCD camera spectral imaging in cells. The data set is classed as cell-based. The settings on record: Coelenterazine400a; normalized with CMV-FLuc; P<0.01. On the procedure: Methods: Three different mutations of RLuc, a single mutation C124A, a double mutation C124A/M185V, and a combination of eight mutations called RLuc8, were fused with GFP^2 and tested in HT1080 fibro-sarcoma cells by using CCD camera based spectral imaging. The new vectors were also tested in a small animal tumor model with implanted cells at various tissue depths.
FIG. 7 illustrates a comparative chart showing normalized donor (RLUC) and acceptor (GFP2) signal as measured from 293T cells transiently transfected with the marked plasmid vectors. BRET2 represents GFP2-Rluc, BRET-C represents GFP2-Rluc C124A, BRET-M represents Rluc C124A/M185V, BRET-Rl8 represents GFP2-Rluc8, RL represents Rluc, RL-C represents RLuc C124A, RL-M represents RLuc C124A/M185V, and Rl8 represents Rluc8. CCD camera scans were performed by adding Coelenterazine400a to the well plates. The cells were co-transfected with CMV-FLuc plasmid and scaned at the same time using D-Luciferin substrate for normalization purposes.
FIGS. 8A and 8B illustrate comparative assessments on signal quantification from HT1080 cells stably over-expressing GFP2-Rluc8 (8A) and GFP2-Rluc (8B) plasmid vectors. […] The line represents the calculated BRET ratios at each time point of measurements. […]

Read-outs that look alike come from different tables or passages of the source.

B1: Native RLuc: Luciferase from Renilla reniformis, native enzyme (SEQ ID NO: 1) (protein)
chain: MASKVYDPEQRKRMITGPQWWARCKQMNVLDSFINYYDSEKHAENAVIFLHGNAASSYLWRHVVPHIEPVARCIIPDLIGMGKSGKSGNGSYRLLDHYKYLTAWFELLNLPKKIIFVGHDWGACLAFHYSYEHQDKIKAIVHAESVVDVIESWDEWPDIEEDIALIKSEEGEKMVLENNFFVETMLPSKIMRKLEPEEFAAYLEPFKEKGEVRRPTLSWPREIPLVKGGKPDVVQIVRNYNAYLRASDDLPKMFIESDPGFFSNAIVEGAKKFPNTEFVKVKGLHFSQEDAPDEMGKYIKSFVERVLKNEQ
modifications: Chemically synthesized Renilla Luciferase
As for B1, in data set [1], the “Quantum Yield (%) bc” value turned out to be 3.2 ± 0.04%, the “Quantum Yield (%) bdc” value is “(6.1 ± 0.9) × 10^−3%”, the “Quantum Yield (%) cp” value is 4.7 ± 0.03% and the “Quantum Yield (%) n” value worked out at 6.1 ± 0.2%. Further, the “Quantum Yield (%) native” value in [1] is 5.3 ± 0.1%. Further, the “average radiance on GFP^2 filter, subcutaneous implants” value in data set [2] is 0.342±0.031×10^3 photons/sec/cm^2/steradian. In addition, the “reported peak light flux” value in data set [3] (RLuc purified directly from Renilla reniformis) was 6.5×10^22 photons/s/mole enzyme. Besides, in [3] (in the presence of benzyl-coelenterazine, read-out: previously published Km), the Km is 2 µM. Also, the “reported peak light flux” value in data set [3] (recombinant RLuc) was 9×10^22 photons/s/mole enzyme. Also, the “Serum τ1/2 (h) rat” value in [4] came out at 0.4 h. Moreover, the “Serum τ1/2 (h) mouse” value in data set [5] was 0.9 h. For the same molecule, the “Light output after transient transfection, 293T” value in the data set with 293T cells is 22.5 ± 0.7 photons × 10^6/s/cm^2/steradian. Also, in [6], the “half-life in hamster blood” value is 36 min. Further, in [7], the “Wavelength (nm) mean” value is listed as 497 nm and the “Wavelength (nm) peak” value was determined as 482 nm. The “Light output after transient transfection, CHO” value with CHO cells was 11.7 ± 1.2 photons × 10^6/s/cm^2/steradian. For the same molecule, in data set [8], the Km is 2.9 ± 1 µM and the catalytic constant (kcat) is 3.9 ± 0.4 s⁻¹. The Peak light flux in data set [8] (recombinant RLuc, 24 μM coelenterazine) is recorded as 1.2±0.2×10^23 photons/s/mole enzyme. In addition, the “Activity (photons/s/mole enzyme) bc” value in data set [9] (benzyl-coelenterazine, 10 s integration, absolute units) is 5.4 × 10^22 photons/s/mole enzyme. For the same molecule, the “Activity (photons/s/mole enzyme) bdc” value in [9] (bisdeoxycoelenterazine, 10 s integration, absolute units (overestimation per footnote)) is on record as 5.8 × 10^19 photons/s/mole enzyme. Also, the “Activity (photons/s/mole enzyme) cp” value in [9] (coelenterazine-cp, 10 s integration, absolute units) is listed as 1.7 × 10^22 photons/s/mole enzyme. Besides, the “Activity (photons/s/mole enzyme) n” value in data set [9] (coelenterazine-n, 10 s integration, absolute units) was 8.3 × 10^21 photons/s/mole enzyme. Besides, in data set [9] (native coelenterazine, 10 s integration, absolute units), the “Activity (photons/s/mole enzyme) native” value is “(3.2 ± 0.3) × 10^22 photons/s/mole enzyme”. Further, in [10], the “previously published emission peak” value is reported as 482 nm.

B2: C124A: RLuc with the C124A mutation (C152A in Liu and Escher), with Myc epitope (protein)
chain: MASKVYDPEQRKRMITGPQWWARCKQMNVLDSFINYYDSEKHAENAVIFLHGNAASSYLWRHVVPHIEPVARCIIPDLIGMGKSGKSGNGSYRLLDHYKYLTAWFELLNLPKKIIFVGHDWGAALAFHYSYEHQDKIKAIVHAESVVDVIESWDEWPDIEEDIALIKSEEGEKMVLENNFFVETMLPSKIMRKLEPEEFAAYLEPFKEKGEVRRPTLSWPREIPLVKGGKPDVVQIVRNYNAYLRASDDLPKMFIESDPGFFSNAIVEGAKKFPNTEFVKVKGLHFSQEDAPDEMGKYIKSFVERVLKNEQ
modifications: Myc epitope tag; Chemically synthesized Renilla Luciferase
Turning to B2, in data set [1], the “Quantum Yield (%) bc” value is 3.6 ± 0.1%, the “Quantum Yield (%) bdc” value is “(7.7 ± 0.5) × 10^−3%”, the “Quantum Yield (%) cp” value is given as 5.2 ± 0.1% and the “Quantum Yield (%) n” value was found to be 6.4 ± 0.01%. In data set [1], the “Quantum Yield (%) native” value was determined as 5.4 ± 0.3%. For the same molecule, in data set [4], the “Serum τ1/2 (h) rat” value came out at 6.6 ± 0.5 h. For the same molecule, in [11], the “increase of normalized luciferase signal in comparison to cells expressing GFP^2-RLUC” value is recorded as “No significant improvements”. Besides, the “Serum τ1/2 (h) mouse” value in data set [5] came to 7.1 ± 0.4 h. Moreover, the “Light output after transient transfection, 293T” value in the data set with 293T cells is reported as 62.8 ± 12.9 photons × 10^6/s/cm^2/steradian. In [7], the “Wavelength (nm) mean” value is 498 nm and the “Wavelength (nm) peak” value is listed as 482 nm. Moreover, in the data set with CHO cells, the “Light output after transient transfection, CHO” value is recorded as 64.0 ± 4.9 photons × 10^6/s/cm^2/steradian. For the same molecule, in [8], the Km was 2.7 ± 0.8 µM and the kcat turned out to be 4.7 ± 0.4 s⁻¹. In addition, the “Activity (relative to RLuc) bc” value in [9] (benzyl-coelenterazine, relative to native enzyme) is listed as 0.75. In addition, in data set [9] (bisdeoxycoelenterazine, relative to native enzyme), the “Activity (relative to RLuc) bdc” value came out at 0.68. Further, the “Activity (relative to RLuc) cp” value in data set [9] (coelenterazine-cp, relative to native enzyme) turned out to be 0.79. Further, the “Activity (relative to RLuc) n” value in data set [9] (coelenterazine-n, relative to native enzyme) came to 0.63. Also, the “Activity (relative to RLuc) native” value in [9] (native coelenterazine, relative to native enzyme) is 1.2 ± 0.1.

One may read the Km as the substrate concentration at which the rate is half of its maximum. Usually kcat stands for the number of substrate molecules converted per active site and unit of time at saturation.

The values above are taken from patent US7842469B2, “Bioluminescence resonance energy transfer (BRET) systems and methods of use thereof” (Stanford University, priority 2005, dated 2010).
